Assay results as given in US20260234242A1 (HAINAN SIMCERE ZAIMING PHARMACEUTICAL, published 2026).

T1: human CDH6 with EC1 removed, on HEK293T cells (HEK293T-hCDH6-EC1 deletion) (human, UniProt P55285 160-790)
T1 construct: Signal peptide not removed here
T1 sequence: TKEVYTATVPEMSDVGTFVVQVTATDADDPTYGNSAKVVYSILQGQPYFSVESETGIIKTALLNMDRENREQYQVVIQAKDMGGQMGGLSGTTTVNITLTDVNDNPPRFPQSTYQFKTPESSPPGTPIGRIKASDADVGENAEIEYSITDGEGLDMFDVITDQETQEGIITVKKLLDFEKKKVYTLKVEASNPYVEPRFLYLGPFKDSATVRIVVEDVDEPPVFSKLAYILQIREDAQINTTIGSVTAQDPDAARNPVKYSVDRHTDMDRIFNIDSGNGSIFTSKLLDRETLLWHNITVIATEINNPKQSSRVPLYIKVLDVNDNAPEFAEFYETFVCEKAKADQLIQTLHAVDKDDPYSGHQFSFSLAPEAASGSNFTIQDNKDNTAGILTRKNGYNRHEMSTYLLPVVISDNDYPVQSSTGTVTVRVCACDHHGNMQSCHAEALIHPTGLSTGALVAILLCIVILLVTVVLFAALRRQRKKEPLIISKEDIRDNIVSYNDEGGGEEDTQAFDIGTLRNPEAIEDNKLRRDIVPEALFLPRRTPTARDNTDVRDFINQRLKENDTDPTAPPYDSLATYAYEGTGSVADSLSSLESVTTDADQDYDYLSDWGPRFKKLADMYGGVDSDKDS

T2: human CDH6 on tumor cells (OVCAR3 cells, PA-1 cells) (human, UniProt P55285 54-790)
T2 sequence: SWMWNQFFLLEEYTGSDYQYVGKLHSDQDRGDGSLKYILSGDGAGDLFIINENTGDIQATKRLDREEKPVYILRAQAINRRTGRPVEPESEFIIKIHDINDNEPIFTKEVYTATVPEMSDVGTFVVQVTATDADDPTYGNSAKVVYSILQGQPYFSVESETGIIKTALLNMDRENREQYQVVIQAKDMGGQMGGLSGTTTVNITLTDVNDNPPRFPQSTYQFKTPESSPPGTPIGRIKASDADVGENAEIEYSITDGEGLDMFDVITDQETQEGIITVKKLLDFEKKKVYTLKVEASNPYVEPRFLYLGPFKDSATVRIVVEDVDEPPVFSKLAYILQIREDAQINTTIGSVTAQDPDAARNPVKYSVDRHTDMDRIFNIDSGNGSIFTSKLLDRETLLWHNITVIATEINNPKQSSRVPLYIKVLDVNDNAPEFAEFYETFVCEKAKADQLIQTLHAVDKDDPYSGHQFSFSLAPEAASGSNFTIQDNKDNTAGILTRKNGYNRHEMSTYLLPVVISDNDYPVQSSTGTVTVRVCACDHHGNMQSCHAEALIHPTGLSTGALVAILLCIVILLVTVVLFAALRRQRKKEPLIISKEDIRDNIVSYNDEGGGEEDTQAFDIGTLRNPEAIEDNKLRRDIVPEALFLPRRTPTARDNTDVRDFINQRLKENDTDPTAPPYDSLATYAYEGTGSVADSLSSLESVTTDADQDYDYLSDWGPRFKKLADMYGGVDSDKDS

B1: CHI-CDH6-5 (antibody, human IgG1, kappa, V domains shown)
VH: QVQLQQSGAELVRPGTSVKMSCKAAEYTFTNYWIGWVKQRPGHGLEWIGDLYPGGDHANYNEKFEGKATLTADTSSSTAYMQLSSLTSEDSAIYYCARGMLTTGFDSWGQGTTLTVSS
VL: DIVMSQSPSSLAVSAGEKVTMSCKSSQSLFNSRTRKNYLAWYQQKPGQSPKLLIYWASTRESGVPDRFTGSGSGTDFTLTISSVQAEDLAVYYCKQSYYLRTFGGGTKLEIKR
notes: also called CH1-CDH6-5; chimeric antibody of murine CDH6-5
B2: CHI-CDH6-1 (antibody, human IgG1, kappa, V domains shown)
VH: QVQLQQPGAELVRPGSSVKLSCKASGYTFTNYWMHWVKQRPIEGLEWIGDIDPSHSETHYTQKFKDKATLTVDKSSSTAYMQLSSLTSEDSAVYYCARGDLGRFDYWGQGTTLTVSS
VL: DIVLTQSPASLAVSLGQRATISCRASESVSIHGTHLMHWYQQKSGQPPKLLIYAASNLESGVPARFSGSGSETDFTFNIHPVEEEDAATYFCQQSFEDPWTFGGGTKLEIKR
notes: also called CHI-hCDH6-1; CH1-CDH6-1
B3: CHI-CDH6-7 (antibody, human IgG1, kappa, V domains shown)
VH: EVKLVESGGGLVKPGGSLKVSCAASGFTFSDHGMAWVRQAPGKGPEWVAFISNLAYSIYYADTVTGRFTISRENAKNTLYLEMSSLRSEDTAMYYCARVYVKWYFDVWGAGTTVTVSS
VL: DIQMTQSPASLSASVGETVTITCRASENIDSYLAWYQQKQGKSPQLLVFAATLLADGVPSRFSGSGSGTQYSLKINSLQSEDVARYYCQHYYSTPLTFGAGTKLELKR
notes: also called CH1-CDH6-7; chimeric antibody of murine CDH6-7
B4: NOV0712 (antibody, human IgG1, kappa, V domains shown)
VH: QVQLLESGGGLVQPGGSLRLSCAASGFTFSSHGMHWVRQAPGKGLEWVSVISGSGSNTGYADSVKGRFTISRDNSKNTLYLQMNSLRAEDTAVYYCARQWGSYAFDSWGQGTLVTVSS
VL: DIQMTQSPSSLSASVGDRVTITCRASQSISSYLNWYQQKPGKAPKLLIYAVSTLQSGVPSRFSGSGSGTDFTLTISSLQPEDFATYYCQQSGTFPPTTFGQGTKVEIKR
notes: Positive control, variable regions from WO2018212136A1; also called positive control anti-human CDH6 antibody
B5: hCDH6-6-H2L2 (antibody, V domains shown)
VH: EVQLVQSGAEVKKPGASVKVSCKASGYTFTDYYMAWVRQAPGQGLEWMGYIFPNSGGTDYSQKFKGRVTLTVDKSTSTVYMELSSLRSEDTAVYYCARELGADYGDYYAMDHWGQGTTVTVSS
VL: DIQMTQSPSSLSASVGDRVTITCRASENIDSYLAWYQQKPGKSPKLLVYSATLLADGVPSRFSGSGSGTDYTLTISSLQPEDFATYYCQHYYRTPPTFGQGTKLEIK
notes: Humanized
B6: hCDH6-1-H2L3 (antibody, V domains shown)
VH: EVQLVQSGAEVKKPGSSVKVSCKASGYTFTNYWMHWVRQAPGQGLEWMGDIDPSHSETHYTQKFKDRVTITVDKSTSTAYMELSSLRSEDTAVYYCARGDLGRFDYWGQGTTVTVSS
VL: DIQMTQSPSSLSASVGDRVTITCRASESVSIHGTHLMHWYQQKPGKPPKLLIYAASNLESGVPSRFSGSGSETDFTFTISSLQPEDIATYYCQQSFEDPWTFGGGTKVEIK
notes: Humanized
B7: DS-H01L02 (antibody, human IgG1, kappa, V domains shown)
VH: EVQLVQSGAEVKKPGASVKVSCKASGYTFTRNFMHWVRQAPGQGLEWMGWIYPGDGETEYAQKFQGRVTITADTSTSTAYMELSSLRSEDTAVYYCARGVYGGFAGGYFDFWGQGTLVTVSS
VL: DIQMTQSPSSLSASVGDRVTITCKASQNIYKNLAWYQQKPGKAPKLLIYDANTLQTGVPSRFSGSGSGSDFTLTISSLQPEDFATYFCQQYYSGWAFGQGTKVEIKR
notes: as for B4

What follows are binders tested against T1, human CDH6 with EC1 removed, on HEK293T … (assay: FACS, HEK293T-hCDH6-EC1 deletion cells).

Binder | binding result
B1 | no binding
B2 | no binding
B3 | no binding

What follows are binders tested against T2, human CDH6 on tumor cells (OVCAR3 …) (assay: FACS, OVCAR3 cells, 4° C. arm of endocytosis assay).
Description: OVCAR3 cells were cultured until a confluence of 90% was reached, the medium was removed by pipetting, the cells were washed once with PBS, and then treated with an enzyme-free cell dissociation solution (Versene, purchased from Gibco, Cat. No. 15040-066) and the cells were collected. The cells were washed once with PBS, counted, resuspended to 2×10⁶ cells/mL in an FACS buffer (PBS+2% FBS), and then added to two 96-well plates at 50 μL/well. The chimeric antibodies were diluted with FACS buffer (PBS+2% FBS) to 10 μg/mL and separately added to the two 96-well plates at 50 μL/well, and the plates were incubated at 4° C. for 1 h. After the cells were washed 3 times with PBS, the cells were resuspended in an FACS buffer. One 96-well plate was incubated at 4° C. for 1 h, and the other 96-well plate was incubated at 37° C. for 1 h. […] After the plates were centrifuged and washed 2 times with PBS, the cells were resuspended in an FACS buffer. The mean fluorescence intensity (MFI) was measured using FACS Canton II (BD). The chimeric antibodies tested all had good endocytic activity.
Some of the antibodies were selected for the endocytic activity assay, and the method for assaying the endocytic activity of the humanized antibodies in OVCAR3 cells was the same as that in 2.4. The humanized antibodies tested all had good endocytic activity.

Binder | MFI_4° C. [MFI]
B4 | 13600
B5 | 20500
B6 | 20200
B7 | 11400
